In the supplement of paper PMC9170038:

Tested on: K4 kissing-loop RNA reporter
Assay: apparent KD of K4 kissing-loop reporter; higher = weaker reporter binding
Settings: Eterna round: R107
Method: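 RNA-MaP round R107: designed RNA switches with theophylline, tryptophan, arginine or FMN aptamers are transcribed on-chip within common flanks. They are titrated with a labelled K4 kissing-loop RNA reporter in RNA-MaP buffer (100 mM Tris pH 7.5, 80 mM KCl, 4 mM MgCl2), without ligand or with the indicated ligand. Median apparent KD per design.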

[1] = input ligand: theophylline 20 uM
[2] = input ligand: tryptophan 2.4 mM
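Further: bound reporter read as fluorescence of individual clusters on recovered sequencing chips by microscopy, with normalized cluster intensities fitted with a binding model.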

Sequence	apparent KD of K4 kissing-loop reporter (input ligand: FMN 200 uM)	apparent KD of K4 kissing-loop reporter (input ligand: arginine 13.2 mM)	apparent KD of K4 kissing-loop reporter (input ligand: none)	apparent KD of K4 kissing-loop reporter [1]	apparent KD of K4 kissing-loop reporter [2]
UAAUCACUCGAACUGCAAGUACGAGUGGAACGAGGACCGGUACGGCCGCCACUCGAUAACUUGCAGUGAUGUUGCAAGUAAGAAU [(T)''-(K)'-(T)'-(T1)-(T2)-(K1)-(K2)_Design7]	60.5 nM	52.4 nM	57.2 nM	52.8 nM	121 nM
UAAUUUAUGUCUUUAAUUUUAUAAUCAGAUACCAGUGAUUUAUGACACCCUUGGCAGCUGUAUUGAGUGAUGUUCUUAUACUUAA [JR_Nu_ExcTheophyA_Sub022]	140 nM	167 nM	175 nM	236 nM	99.3 nM
UACAGGGAUAGUGAUGUUAUCCCAUGUGAUACCAGUGCCAUCCAACACCCUUGGCAGCAUACGGGCAGUGAUGUUGUUCUUGGUU [Exclusion Theophylline A GF 13]	96.1 nM	85.4 nM	93.7 nM	87.1 nM	88.5 nM
UACAGGGCGAGUGAUGUUUGCUCAUGUGAUACCAGUGCCAUCCAACACCCUUGGCAGCAUGCGGGCAGUGAUGUUGUCCUUGGUU [Exclusion Theophylline A GF11]	294 nM	223 nM	280 nM	278 nM	249 nM
UACUUAUAUAUCAACUUAAAUUAUUCAGAAGGAGCGUGAUCAUUCACAGGUAGGUCGCUGAACUAGUGAUGUUAGUUUUAAUUUU [JR_Nu_ExcArginiA_Sub023]	67.9 nM	146 nM	81.3 nM	126 nM	61.5 nM
UAGCUCUACAGAAGGAGCGACGUUCUUAGACAGUGAUGUUGUCUAUAGUGAAUAUAGGAACGUCAGGUAGGUCGCUGUAGAGCUA [Arg B SS t11]	213 nM	160 nM	200 nM	189 nM	164 nM
UAGGAGUGAUGUUCCAUGUCUUGAGCCGAAGGAGCGCCUUUCUAGGCAGGUAGGUCGCGGCAGAAGGUACCAGUGAUGUUGGAAA [Same State Arginine A GF8]	249 nM	385 nM	372 nM	283 nM	279 nM
UAGGUUUAAUCGGCCGCCACUAUCAGAGCGCCAGUGAUGUUGGAGUAACGAUCGUGGCGAGUUAAUAGGACCGGGAUUCAACACA [Velazaer]	159 nM	141 nM	141 nM	152 nM	156 nM
UAGUCCGAGUGAUGGUCAUCACGUGGCGGGCGAGGACCGGUACGGCCGCCACUCGACUUUGCAGUGAUGUUGCAAACCGGACAAU [Exclusion - Tryptophan A (Freestyle 21)]	229 nM	185 nM	249 nM	224 nM	193 nM
UAGUGGUAGACCAGAUCUACCACUAGGGAUACCAGCCUCGGUCGAGGCCCUUGGCAGCCCAGCGGGUCCAGUGAUGUUGGAUGUC [Raanza]	355 nM	256 nM	322 nM	194 nM	295 nM
UAUAAGCGCAGAGGAUAUACUAGCUUUCACUAGUGCAGUGAUGUUGCACUAGACCAGCUGUACAUAGUAGAAGGCUGCGUUCCUU [FMN B SS t1]	89.1 nM	116 nM	112 nM	131 nM	117 nM
UAUACACAGGGAGGAUAUGCCCACACAACAACCGAGUGAUGUUCGGACAAUACACAUAAUACACGGGCAGAAGGCCCACAUCACA [SS FNM B Tesla 1]	143 nM	195 nM	245 nM	192 nM	139 nM
UAUAUAUGAUGUGAUACCAGUGAAAAGCCAGUGAUGUUGGUAGAACUGGUAUAUAAAUAACACCCUUGGCAGCACAAUCACGUAU [whbob_Ex_Theo_B_sa96]	155 nM	134 nM	147 nM	191 nM	146 nM
UAUAUGCAGUGAUGUUGCGGCACACUUCCGAAGGAUAUGUCCGGUGACAGAAGGUCGGUCCAUGGGACAUCACGUGUGCUUGAUG [theeternabot_exclusion_KL_FMN_A_15]	542 nM	536 nM	613 nM	529 nM	458 nM
UAUUUAAUGUCAGGAUAUCGUAUACGAGUGAUGUUCGUAUUUCUACUAUAGAUUAUUUAAAUUUUUCGAGAAGGGACAAUAUUUA [KL-SSFMN-B4]	177 nM	208 nM	193 nM	186 nM	158 nM
UCAAACGAUGGAAGGAGCGCUCGUCAGUCCUGCGAGUGAUGUUCGUGGGUAAAUAGUCGCGAGCAGGUAGGUCGCCAUCUUAAGC [Bisodi]	135 nM	98.1 nM	118 nM	108 nM	113 nM

Sequence	apparent KD of K4 kissing-loop reporter (input ligand: FMN 200 uM)	apparent KD of K4 kissing-loop reporter (input ligand: arginine 13.2 mM)	apparent KD of K4 kissing-loop reporter (input ligand: none)	apparent KD of K4 kissing-loop reporter [1]	apparent KD of K4 kissing-loop reporter [2]
UCACAAGUUAACUAGUGAUGUUAGUUAGUACGAGGACCGGUACGGCCGCCACUCGAAAAGUGGUUUUACGGACUUUUGGGCAGGC [theeternabot_sameState_KL_Trp_A_17]	337 nM	250 nM	268 nM	223 nM	260 nM
UCCUACGAGGUAACGUGGAUAUCUCGUUGCAAGGAUAUCUGGAAACAGAGAAGGUGCAACAUUAUCAGCAGUGAUGUUGCUGACC	215 nM	247 nM	276 nM	389 nM	329 nM
UCCUACGAGGUAACGUGGAUAUCUCGUUGCAAGGAUAUCUGGAAACAGAGAAGGUGCUACAUUAUCGGCAGUGAUGUUGCUGACC	687 nM	655 nM	1010 nM	759 nM	529 nM
UCCUAGGUUCGUCGGCGAAAGCCCUGCGAAGGAGCGUGCGAAAGCACAGGUAGGUCGCGCAGUGAUGUUGCACCUAGGUAAUAAA [#SwitchBubble 23 #K4Late]	1030 nM	672 nM	344 nM	150 nM	781 nM
UCCUGCUGUCAGCCACGAAAGUGGAUUGAUACCAGAGUCGAAAGACUCCCUUGGCAGCGAGUGAUGUUCGCAGCAGGUAAAUAAA [MatMod 3 - Jieux - Exclusion - Theophylline A]	358 nM	257 nM	269 nM	356 nM	256 nM
UCGAGUUGACGAAAAGUCAACUCGUGAGAUACCAGUGACGAAAGUCACCCUUGGCAGCUCACUGCCAGUGAUGUUGGUAUAUAGA [#05 K4 Theophylline A Same State]	146 nM	80.8 nM	105 nM	217 nM	87.5 nM
UCGCAUCUCAGAAGGAGCGACAGUGAUUCUGAUAGAAAUCUGAGUGAUGUUCAGAACAGCUGUCAGGUAGGUCGCUGAGAUGCGA [Arg B Ex t8]	813 nM	384 nM	547 nM	413 nM	314 nM
UCUGCAAAGUCGGCCGCCACUCCGGGCCCUAUAAAUGGGCGCAGUGAUGUUGCGGCUAGGCCUCUGAGGACCGGGACUUUGUAGA [Atlesoqu]	87.5 nM	54.3 nM	100 nM	132 nM	246 nM
UCUGUUUCGAUGGAUACCAGUCGGCGAAUCACAGCUAUUAGCCUAGUGAUGUUAGGAUCGGACCCUUGGCAGCCAAUGGAUGCGG [theeternabot_sameState_KL_Theo_B_14]	921 nM	750 nM	1240 nM	1270 nM	732 nM
UGACUACAUAAGGAAUAAUCCUAGUGAUGUUAGGAUAUGCUGAUAAGCAGAAGGAACGGAGAUCGAAGGAUCUCAUAUGUAGUCU [whbob_Ex_FMNA__2th194]	275 nM	101 nM	103 nM	121 nM	103 nM
UGACUGGACUGAAGGAGCGCAAAACUCCUAGUGAUGUUAGGAAAACGAGACAAAGUCUCGAUGCAGGUAGGUCGCAGUCUAGUCU	209 nM	146 nM	185 nM	194 nM	182 nM
UGACUGGAUGGAAGGAGCGCUAAACUCCUAGUGAUGUUAGGGAUACGAGACAAAGUCUUGAAGCAGGUAGGUCGCCAUCUAGUCU [FiskerMod 10 - Jieux - Same State - Arginine B]	170 nM	124 nM	144 nM	144 nM	138 nM
UGAGAUAUGAGGGAUACCAGCCAUAAGGAAAGUGUGAUGAGUGAUGUUCUGACAAGCCAAGGCCCUUGGCAGCUUUAAUAGCAUC [whbob_SS_Theo_B_th77]	328 nM	191 nM	280 nM	167 nM	267 nM
UGAUACCAGACGGCCGCCACUCCCGUAAGUCAAAGACUUACGAAGAGAAUCGUCCAGUGAUGUUGGAGGACCGGGUCUGGUAUCU [FiskerMod 11 - Jieux - Exclusion - Tryptophan B]	680 nM	664 nM	818 nM	600 nM	785 nM
UGAUACCAGACGGCCGCCACUCCCGUAAGUCAAAGACUUACGAAGAGAGUCGUCCAGUGAUGUUGGAGGACCGGGUCUGGUAUCU [FiskerMod 12 - Jieux - Exclusion - Tryptophan B]	179 nM	143 nM	163 nM	138 nM	294 nM
